Assay results reported in paper PMC3932107.

What was measured:
[1] = target: Alexa488-labeled γ-synuclein (human) (UniProt O76070); assay: photon counting histogram
[2] = target: CPM-labeled γ-synuclein (human) (UniProt O76070); assay: other fluorescence titration

Alexa488-labeled γ-synuclein (from UniProt O76070 1-127) (natural protein)
stoichiometry N [1]: 20

γ-synuclein, purified from E. coli, unlabelled (from UniProt O76070 1-127) (natural protein)
Kd [2]: 5 nM
